What was measured:
[1] = system: c-Abl (mouse); assay: phosphorylation enrichment, bacterial display (enrichment ratio); higher = better substrate or ligand; peptides without Tyr show the background
[2] = system: c-Src; assay: as above
[3] = target: Hck (UniProt P08631); assay: as above
[4] = system: Fer (mouse); assay: as above
[5] = target: FGFR1 (UniProt P11362); assay: as above
[6] = target: FGFR3 (UniProt P22607); assay: as above
[7] = target: Jak2 (UniProt O60674); assay: as above
[8] = target: Fyn (UniProt P06241); assay: as above
[9] = target: EPHB2 (UniProt P29323); assay: as above
[10] = target: EPHB1 (UniProt P54762); assay: as above
[11] = target: Fes (UniProt P07332); assay: as above
[12] = system: AncSZ; assay: as above
[13] = target: MERTK (UniProt Q12866); assay: as above
[14] = target: SHP2-C SH2; assay: SH2 binding enrichment of the phosphorylated peptide, bacterial display (enrichment ratio); higher = better substrate or ligand; peptides without Tyr show the background
[15] = target: c-Src SH2; assay: as above
[16] = target: Grb2 SH2 (UniProt P62993); assay: as above
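Wherever SH2 binding enrichment of the phosphorylated peptide, bacterial display is given: peptide library displayed on the E. coli surface as eCPX fusions, selected cells deep-sequenced, score is each peptide's frequency after selection divided by its frequency in the input.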
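Wherever phosphorylation enrichment, bacterial display is given: 11-residue human phosphosite peptides and single-mutation variants displayed on the E. coli surface, counted by deep sequencing, each peptide's frequency after selection divided by its frequency in the unselected input library; frequency after pTyr selection over input frequency; kinase dosed for 20-30% of maximal phosphorylation in three min.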

Chain of EPHB1 (P54762 whole entry, looked up): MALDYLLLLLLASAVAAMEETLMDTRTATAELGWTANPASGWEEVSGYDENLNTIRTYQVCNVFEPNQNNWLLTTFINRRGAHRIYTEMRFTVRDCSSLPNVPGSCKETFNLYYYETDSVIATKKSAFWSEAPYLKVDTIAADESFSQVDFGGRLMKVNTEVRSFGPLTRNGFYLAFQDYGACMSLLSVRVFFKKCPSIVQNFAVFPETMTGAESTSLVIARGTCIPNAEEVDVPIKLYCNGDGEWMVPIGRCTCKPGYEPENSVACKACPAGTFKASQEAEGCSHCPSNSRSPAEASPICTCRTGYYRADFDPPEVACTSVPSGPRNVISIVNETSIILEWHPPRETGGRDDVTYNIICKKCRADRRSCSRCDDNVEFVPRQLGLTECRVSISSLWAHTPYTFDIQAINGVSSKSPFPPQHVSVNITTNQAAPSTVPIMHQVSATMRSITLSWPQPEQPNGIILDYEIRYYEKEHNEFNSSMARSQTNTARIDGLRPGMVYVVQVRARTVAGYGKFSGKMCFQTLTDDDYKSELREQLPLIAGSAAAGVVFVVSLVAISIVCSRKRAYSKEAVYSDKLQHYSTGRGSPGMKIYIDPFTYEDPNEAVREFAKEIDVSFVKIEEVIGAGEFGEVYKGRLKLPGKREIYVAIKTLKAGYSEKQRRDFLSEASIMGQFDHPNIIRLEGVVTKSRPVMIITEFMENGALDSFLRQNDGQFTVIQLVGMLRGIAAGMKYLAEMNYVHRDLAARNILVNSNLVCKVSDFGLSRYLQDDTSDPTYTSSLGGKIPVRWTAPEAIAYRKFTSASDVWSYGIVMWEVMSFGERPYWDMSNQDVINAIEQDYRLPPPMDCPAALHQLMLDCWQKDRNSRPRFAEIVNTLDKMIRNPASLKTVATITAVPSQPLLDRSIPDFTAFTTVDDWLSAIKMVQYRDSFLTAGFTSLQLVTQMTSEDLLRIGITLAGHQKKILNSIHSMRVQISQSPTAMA
Chain of FGFR1 (P11362 whole entry, looked up): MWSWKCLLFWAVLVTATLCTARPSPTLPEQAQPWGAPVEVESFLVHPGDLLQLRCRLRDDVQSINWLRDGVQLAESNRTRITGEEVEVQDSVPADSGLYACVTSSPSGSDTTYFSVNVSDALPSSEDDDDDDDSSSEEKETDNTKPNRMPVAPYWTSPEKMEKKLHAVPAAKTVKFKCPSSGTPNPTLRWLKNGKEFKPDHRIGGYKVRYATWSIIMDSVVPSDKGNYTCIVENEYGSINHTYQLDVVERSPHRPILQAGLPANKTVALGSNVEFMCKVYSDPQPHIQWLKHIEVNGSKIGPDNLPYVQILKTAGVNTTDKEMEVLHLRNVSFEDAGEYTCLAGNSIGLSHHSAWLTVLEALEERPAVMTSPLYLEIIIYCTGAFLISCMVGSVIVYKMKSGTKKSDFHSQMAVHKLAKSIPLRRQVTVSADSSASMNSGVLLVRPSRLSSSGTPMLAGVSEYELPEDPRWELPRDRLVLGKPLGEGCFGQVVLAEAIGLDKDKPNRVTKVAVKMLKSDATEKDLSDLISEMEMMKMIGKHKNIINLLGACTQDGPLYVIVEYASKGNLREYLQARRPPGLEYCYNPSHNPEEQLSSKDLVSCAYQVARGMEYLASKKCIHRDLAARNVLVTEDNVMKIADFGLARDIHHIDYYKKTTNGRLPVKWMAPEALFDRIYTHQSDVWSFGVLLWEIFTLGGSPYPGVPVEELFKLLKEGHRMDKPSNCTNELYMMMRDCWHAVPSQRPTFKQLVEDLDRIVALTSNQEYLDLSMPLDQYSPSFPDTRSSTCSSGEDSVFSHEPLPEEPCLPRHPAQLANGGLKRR
Chain of FGFR3 (P22607 whole entry, looked up): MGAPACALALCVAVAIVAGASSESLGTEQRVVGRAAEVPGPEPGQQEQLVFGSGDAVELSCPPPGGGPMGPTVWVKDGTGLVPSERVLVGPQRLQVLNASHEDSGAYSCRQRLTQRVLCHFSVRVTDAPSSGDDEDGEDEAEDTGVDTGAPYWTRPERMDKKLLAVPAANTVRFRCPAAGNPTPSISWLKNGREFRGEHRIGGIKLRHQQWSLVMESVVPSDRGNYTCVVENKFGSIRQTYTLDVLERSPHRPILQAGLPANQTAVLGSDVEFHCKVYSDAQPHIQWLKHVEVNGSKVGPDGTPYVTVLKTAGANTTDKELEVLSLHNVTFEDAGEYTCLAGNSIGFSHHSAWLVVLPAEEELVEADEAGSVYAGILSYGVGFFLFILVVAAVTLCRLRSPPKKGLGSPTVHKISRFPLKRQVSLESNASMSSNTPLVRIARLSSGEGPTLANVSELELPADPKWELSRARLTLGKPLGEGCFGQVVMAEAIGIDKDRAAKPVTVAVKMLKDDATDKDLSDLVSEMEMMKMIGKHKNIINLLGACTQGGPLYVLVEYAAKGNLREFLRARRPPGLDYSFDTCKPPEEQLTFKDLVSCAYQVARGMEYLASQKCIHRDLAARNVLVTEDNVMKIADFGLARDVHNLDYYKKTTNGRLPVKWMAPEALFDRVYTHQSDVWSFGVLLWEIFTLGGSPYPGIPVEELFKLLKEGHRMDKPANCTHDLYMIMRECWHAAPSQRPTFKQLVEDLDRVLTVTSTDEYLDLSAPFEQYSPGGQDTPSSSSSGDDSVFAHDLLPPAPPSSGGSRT
Chain of Hck (P08631 whole entry, looked up): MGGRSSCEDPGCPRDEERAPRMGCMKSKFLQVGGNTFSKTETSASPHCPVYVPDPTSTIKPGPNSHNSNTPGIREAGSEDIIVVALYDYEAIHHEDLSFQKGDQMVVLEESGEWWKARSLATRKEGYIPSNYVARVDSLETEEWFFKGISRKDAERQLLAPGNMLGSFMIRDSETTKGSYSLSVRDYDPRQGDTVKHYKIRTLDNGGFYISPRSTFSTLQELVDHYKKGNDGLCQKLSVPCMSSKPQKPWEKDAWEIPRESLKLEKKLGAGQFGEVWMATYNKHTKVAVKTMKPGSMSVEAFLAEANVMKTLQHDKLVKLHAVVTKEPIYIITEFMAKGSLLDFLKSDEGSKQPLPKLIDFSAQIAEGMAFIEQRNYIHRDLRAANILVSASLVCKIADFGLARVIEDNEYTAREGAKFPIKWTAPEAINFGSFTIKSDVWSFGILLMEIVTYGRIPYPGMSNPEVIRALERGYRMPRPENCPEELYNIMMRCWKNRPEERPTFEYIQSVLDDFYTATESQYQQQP
Chain of Fes (P07332 whole entry, looked up): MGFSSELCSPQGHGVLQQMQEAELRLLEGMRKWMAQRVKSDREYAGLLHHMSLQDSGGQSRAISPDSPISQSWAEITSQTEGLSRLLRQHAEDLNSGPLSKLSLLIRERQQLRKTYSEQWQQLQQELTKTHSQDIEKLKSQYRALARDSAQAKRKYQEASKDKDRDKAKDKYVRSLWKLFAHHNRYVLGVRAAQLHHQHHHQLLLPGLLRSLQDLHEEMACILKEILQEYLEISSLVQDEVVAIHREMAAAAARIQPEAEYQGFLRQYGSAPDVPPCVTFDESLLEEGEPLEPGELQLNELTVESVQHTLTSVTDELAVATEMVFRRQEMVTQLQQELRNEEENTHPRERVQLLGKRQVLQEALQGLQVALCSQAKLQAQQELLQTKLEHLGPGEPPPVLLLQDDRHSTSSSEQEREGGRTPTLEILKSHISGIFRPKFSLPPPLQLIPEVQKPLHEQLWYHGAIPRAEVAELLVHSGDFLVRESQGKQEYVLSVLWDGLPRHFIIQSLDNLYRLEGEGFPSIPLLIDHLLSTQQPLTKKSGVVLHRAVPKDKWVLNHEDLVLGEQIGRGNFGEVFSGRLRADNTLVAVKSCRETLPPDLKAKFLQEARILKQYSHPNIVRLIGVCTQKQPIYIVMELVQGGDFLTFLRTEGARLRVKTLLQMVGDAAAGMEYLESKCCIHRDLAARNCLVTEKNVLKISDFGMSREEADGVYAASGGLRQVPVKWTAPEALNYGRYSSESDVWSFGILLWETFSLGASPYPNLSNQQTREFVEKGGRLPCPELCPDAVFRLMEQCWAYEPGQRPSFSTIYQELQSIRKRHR
Chain of MERTK (Q12866 whole entry, looked up): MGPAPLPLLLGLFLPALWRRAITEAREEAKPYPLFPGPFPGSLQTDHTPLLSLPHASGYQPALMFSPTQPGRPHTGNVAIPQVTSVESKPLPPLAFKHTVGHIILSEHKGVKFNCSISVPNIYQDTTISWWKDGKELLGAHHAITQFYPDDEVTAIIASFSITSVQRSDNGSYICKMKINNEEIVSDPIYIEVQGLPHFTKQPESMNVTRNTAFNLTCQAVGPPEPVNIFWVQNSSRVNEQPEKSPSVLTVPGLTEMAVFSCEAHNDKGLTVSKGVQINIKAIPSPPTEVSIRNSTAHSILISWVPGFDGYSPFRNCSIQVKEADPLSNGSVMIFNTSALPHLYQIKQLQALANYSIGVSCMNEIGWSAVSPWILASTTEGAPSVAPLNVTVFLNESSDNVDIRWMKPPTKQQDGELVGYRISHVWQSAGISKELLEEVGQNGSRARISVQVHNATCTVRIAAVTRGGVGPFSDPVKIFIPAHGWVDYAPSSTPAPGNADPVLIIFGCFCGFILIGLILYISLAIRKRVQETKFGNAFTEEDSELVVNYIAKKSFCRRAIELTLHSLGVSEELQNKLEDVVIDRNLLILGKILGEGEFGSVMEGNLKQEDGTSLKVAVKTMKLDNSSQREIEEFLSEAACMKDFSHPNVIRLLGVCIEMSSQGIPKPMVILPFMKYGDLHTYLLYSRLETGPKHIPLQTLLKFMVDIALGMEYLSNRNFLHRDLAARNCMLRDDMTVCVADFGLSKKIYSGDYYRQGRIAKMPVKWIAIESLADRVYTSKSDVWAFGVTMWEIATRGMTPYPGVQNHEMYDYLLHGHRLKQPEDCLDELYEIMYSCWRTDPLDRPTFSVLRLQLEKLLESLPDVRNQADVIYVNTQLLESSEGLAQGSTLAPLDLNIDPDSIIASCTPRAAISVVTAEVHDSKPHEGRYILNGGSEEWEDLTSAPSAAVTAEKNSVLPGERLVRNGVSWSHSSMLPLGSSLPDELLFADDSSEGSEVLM

| Sequence | SH2 binding enrichment [14] | SH2 binding enrichment [15] | SH2 binding enrichment [16] | phosphorylation enrichment [1] | phosphorylation enrichment [2] | phosphorylation enrichment [3] | phosphorylation enrichment [4] | phosphorylation enrichment [5] | phosphorylation enrichment [6] | phosphorylation enrichment [7] | phosphorylation enrichment [8] | phosphorylation enrichment [9] | phosphorylation enrichment [10] | phosphorylation enrichment [11] | phosphorylation enrichment [12] | phosphorylation enrichment [13] |
| --- | --- | --- | --- | --- | --- | --- | --- | --- | --- | --- | --- | --- | --- | --- | --- | --- |
| EVKAQNEDIAQ [KRT1_Y358_Y358N] | 0.669 | 0.587 | 0.977 | 0.51 | 0.427 | 0.488 | 0.411 | 0.54 | 0.584 | 0.767 | 0.413 | 0.549 | 0.422 | 0.867 | 0.86 | 0.511 |
| RGNMYYENSYA [EGFR_Y113] | 0.978 | 5.02 | 10.5 | 1.65 | 1.19 | 0.845 | 2.84 | 1.29 | 1.02 | 2.08 | 0.832 | 0.619 | 1.04 | 1.2 | 0.957 | 2.85 |
| PFQGAYLEINK [MYO1B_Y967] | 0.832 | 7.89 | 0.874 | 0.497 | 0.607 | 0.361 | 0.401 | 0.485 | 0.763 | 1.24 | 0.526 | 0.577 | 0.609 | 1.09 | 1.03 | 0.464 |
| GLRQGYFVEAQ [APCS_Y142] | 0.718 | 0.618 | 0.85 | 0.529 | 0.327 | 0.408 | 0.42 | 0.559 | 0.637 | 0.807 | 0.366 | 0.505 | 0.526 | 1.08 | 0.945 | 0.36 |

Further lines, with some results ahead:

| SH2 binding enrichment [14] | SH2 binding enrichment [15] | SH2 binding enrichment [16] | Sequence | phosphorylation enrichment [1] | phosphorylation enrichment [2] | phosphorylation enrichment [3] | phosphorylation enrichment [4] | phosphorylation enrichment [5] | phosphorylation enrichment [6] | phosphorylation enrichment [7] | phosphorylation enrichment [8] | phosphorylation enrichment [9] | phosphorylation enrichment [10] | phosphorylation enrichment [11] | phosphorylation enrichment [12] | phosphorylation enrichment [13] |
| --- | --- | --- | --- | --- | --- | --- | --- | --- | --- | --- | --- | --- | --- | --- | --- | --- |
| 0.518 | 0.434 | 0.932 | LLSVAYKNVVG [YWHAG_Y49] | 1.05 | 0.418 | 0.665 | 0.551 | 0.589 | 0.709 | 0.649 | 0.585 | 0.64 | 0.645 | 0.935 | 1.02 | 0.454 |
| 0.705 | 0.478 | 0.879 | KCCCIYEKPRA [PPP1R11_Y64] | 7.54 | 3.6 | 2.67 | 8.2 | 0.523 | 0.814 | 1.34 | 1.95 | 1.06 | 1.07 | 1.46 | 2.23 | 1.65 |
| 0.65 | 0.506 | 0.767 | AFPVSYSSSGA [RET_Y687] | 0.53 | 0.477 | 0.303 | 0.392 | 0.407 | 0.406 | 0.52 | 0.344 | 0.314 | 0.455 | 0.541 | 0.511 | 0.454 |
| 0.898 | 0.574 | 0.981 | SKEPFYVHCIK [MYO1D_Y586_R588H_YF] | 0.631 | 0.418 | 0.528 | 0.467 | 0.484 | 0.682 | 0.864 | 0.44 | 0.577 | 0.614 | 1.07 | 1.08 | 0.433 |
